Measured values taken from patent publication US20230036503A1, “Fusion Protein, Amino Acid Sequence Thereof, Coding Nucleotide Sequence Thereof, Preparation Method Thereof and Use Thereof” (priority 2019, published 2023).

Tested on: Fusarium graminearum
Format: in vivo
Conditions: corn leaves, 100 nM

B1: His-MP7: heptapeptide fusion protein, SEQ ID NO: 15: elf18, csp22, flg22, flgII-28, nlp20, pep1, pip1 in sequence, linkers GAG and AGA, HIS tag (protein)
chain: MGSSHHHHHHSSGLVPRGSHMASMTGGQQMGRDPNSSSVDKLSKEKFERTKPHVNVGTIGGAGAVGTVKWFNAEKGFGFITPDDGAGAQRLSTGSRINSAKDDAAGLQIAGAGESTNILQRMRELAVQSRNDSNSATDREAGAGAIMYSWYFPKDSPVTGLGHRAGAATKVKAKQRGKEKVSSGRPGQHNAGARLASGPSPRGRGH
modifications: his-MP7
3-4 days, untreated 12.3%
  scab area percentage: 3.6%
Versus untreated
  infection rate of Fusarium graminearum lowered by: 70.8%
